Assay results from patent US20090170763A1 (KENJI KANGAWA, published 2009).
Like-named read-outs stand apart in the source and are kept apart here. Numbered stars: 1 amine (or outer) side, 2 acyl side, 3 side chain; on linkers, the order of the positions; unused ones are H or OH. Square brackets hold non-standard residues; d marks the D form. Ends that are not written are not given here. * marks the point of attachment. Ethylenediamine = C(CN[*:2])N[*:1]; Palmitoyl = CCCCCCCCCCCCCCCC(=O)*; Lauroyl = CCCCCCCCCCCC(=O)*; Octanoyl = CCCCCCCC(=O)*; NHBn = c1ccc(CN*)cc1; Butyryl = CCCC(=O)*; Ava = NCCCCC(=O)O; Octyl = CCCCCCCC*

Assays:
Assay in all cases: cell-based or functional assay
[1] = molecular target: rat GHS-R (GHS receptor) expressed on CHO-GHSR62 cells (rat) (UniProt O08725)
Chain of rat GHS-R (GHS receptor) expressed on CHO-GHSR62 cells (rat) (O08725 whole entry): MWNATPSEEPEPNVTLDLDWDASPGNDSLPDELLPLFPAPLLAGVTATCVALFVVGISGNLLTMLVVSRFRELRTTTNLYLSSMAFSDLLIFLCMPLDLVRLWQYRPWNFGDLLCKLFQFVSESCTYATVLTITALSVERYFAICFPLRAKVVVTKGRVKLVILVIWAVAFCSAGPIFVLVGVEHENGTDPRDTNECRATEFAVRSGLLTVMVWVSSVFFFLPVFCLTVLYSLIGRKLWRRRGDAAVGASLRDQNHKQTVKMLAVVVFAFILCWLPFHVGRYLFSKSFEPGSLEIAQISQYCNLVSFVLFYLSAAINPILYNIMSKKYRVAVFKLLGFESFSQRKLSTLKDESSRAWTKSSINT

[2] = molecular target: T1, rat GHS-R (GHS receptor) expressed on CHO-GHSR62 cells (rat, UniProt O08725 1-364)
T1 sequence (O08725 whole entry): as above

[3] = molecular target: T1, rat GHS-R (GHS receptor) expressed on …; remark: listed apart in the source
[4] = molecular target: T1, rat GHS-R (GHS receptor) expressed on …; remark: listed apart in the source
[5] = molecular target: T1, rat GHS-R (GHS receptor) expressed on …; remark: listed apart in the source
[6] = molecular target: T1, rat GHS-R (GHS receptor) expressed on …; remark: listed apart in the source

[N-Aminopentanoyl,^DSer^3(Octyl),^DPhe^4,Lys^5]-Ghrelin (3-5)-amide (peptide)
Activity EC50 [1]: 1600 nM

[D-Lys 3]-GHRP-6 (peptide)
inhibition of the Ca-releasing activity of ghrelin [1]: 100 µM

[Aib^1,His^2,^DNal^3,^DPhe^4,Lys^5]-Ghrelin (1-5)-amide (peptide)
Activity EC50 [1]: 2.5 nM
EC50 value [1]: 2.5 nM

[N-Aminopentanoyl,Ser^3(Octyl),Lys^5]-Ghrelin (3-5)-amide (peptide)
Activity EC50 [1]: 12 nM

GSKFLSPEHQRVQQRKESKKPPAKLQPR [[Lys^3]-hGhrelin]
Activity EC50 [2]: 120 nM

GSVFLSPEHQRVQQRKESKKPPAKLQPR [[Val^3]-hGhrelin]
Activity EC50 [2]: 1600 nM

B1: [N-Aminopentanoyl,Ser^3(Octyl)]-Ghrelin (3-5)-amide (peptide)
peptide: [Ava]S(Octyl)FL-NH2
modifications: N-terminus assumed
SMILES: CCCCCCCCOC[C@H](NC(=O)CCCCN)C(=O)N[C@@H](Cc1ccccc1)C(=O)N[C@@H](CC(C)C)C(N)=O
Activity EC50 [3]: 11 nM

[Ava]S(Octyl)FL-NHMe [[N-Aminopentanoyl,Ser^3(Octyl)]-Ghrelin (3-5)-methylamide]
Activity EC50 [3]: 12 nM

[Ava]S(Octyl)FL-NHEt [[N-Aminopentanoyl,Ser^3(Octyl)]-Ghrelin (3-5)-ethylamide]
Activity EC50 [3]: 22 nM

[Ava]S(Octyl)FL-NHBn [[N-Aminopentanoyl,Ser^3(Octyl)]-Ghrelin (3-5)-benzylamide]
Activity EC50 [3]: 98 nM

[Ava]S(Octyl)FL-Ethylenediamine [[N-Aminopentanoyl,Ser^3(Octyl)]-Ghrelin (3-5)-aminoethylamide]
Activity EC50 [3]: 3.5 nM

GSS(Octanoyl)FLSPEHQ [Ghrelin (1-10)]
Ca-releasing activity (EC50, nM) [4]: 19 nM
Ca-releasing activity EC50 [5]: 19 nM

GSS(Octanoyl)FLSPEH [Ghrelin (1-9)]
Ca-releasing activity (EC50, nM) [4]: 38 nM
Ca-releasing activity EC50 [5]: 38 nM

GSS(Octanoyl)FLSPE [Ghrelin (1-8)]
Ca-releasing activity (EC50, nM) [4]: 100 nM
Ca-releasing activity EC50 [5]: 100 nM

GSS(Octanoyl)F [Ghrelin (1-4)]
Ca-releasing activity (EC50, nM) [4]: 480 nM
Ca-releasing activity EC50 [5]: 480 nM

GSS(Palmitoyl)FLSPEHQKAQQRKESKKPPAKLQPR [[Ser^3(Palmitoyl)]-rGhrelin]
Ca-releasing activity (EC50, nM) [4]: 3.1 nM
Ca-releasing activity EC50 [6]: 6.5 nM

GSS(Butyryl)FLSPEHQKAQQRKESKKPPAKLQPR [[Ser^3(Butyryl)]-rGhrelin]
Ca-releasing activity (EC50, nM) [4]: 280 nM
Ca-releasing activity EC50 [6]: 280 nM

GSS(Ac)FLSPEHQKAQQRKESKKPPAKLQPR [[Ser^3(Acetyl)]-rGhrelin]
Ca-releasing activity (EC50, nM) [4]: 780 nM
Ca-releasing activity EC50 [6]: 780 nM

GSSFLSPEHQKAQQRKESKKPPAKLQPR [[Ser^3]-rat Ghrelin]
Ca-releasing activity EC50 [6]: 3500 nM

GSS(Lauroyl)FLSPEHQKAQQRKESKKPPAKLQPR [[Ser^3(Lauroyl)]-rGhrelin]
Ca-releasing activity EC50 [6]: 2.4 nM

GSWFLSPEHQRVQQRKESKKPPAKLQPR [[Trp^3]-hGhrelin]
Activity EC50 [2]: 31 nM

GSFFLSPEHQRVQQRKESKKPPAKLQPR [[Phe^3]-hGhrelin]
Activity EC50 [2]: 2000 nM

GSLFLSPEHQRVQQRKESKKPPAKLQPR [[Leu^3]-hGhrelin]
Activity EC50 [2]: 4400 nM

GSIFLSPEHQRVQQRKESKKPPAKLQPR [[Ile^3]-hGhrelin]
Activity EC50 [2]: > 10000 nM
